We go through 36 molecules from patent publication US20100144601A1 (Janssen / Centocor, published 2010).

B1: Clone No. 6 (designed binder)
chain: LPAPKNLVVSEVTEDSLRLSWTAPDAAFDSFLIQYQESEKVGEAINLTVPGSERSYDLTGLKPGTEYTVSIYGVGGLTVIHPLSAEFTT
notes: F:G GGLTVIH
B2: Clone No. 72 (designed binder)
chain: LPAPKNLVVSEVTEDSLRLSWTAPDAAFDSFLIQYQESEKVGEAINLTVPGSERSYDLTGLKPGTEYTVSIYGVMLKSFASPLSAEFTT
notes: F:G MLKSFAS
B3: Clone No. 84 (designed binder)
chain: LPAPKNLVVSEVTEDSLRLSWTAPDAAFDSFLIQYQESEKVGEAINLTVPGSERSYDLTGLKPGTEYTVSIYGVSVRMSSVPLSAEFTT
notes: F:G SVRMSSV
B4: Clone No. 7 (designed binder)
chain: LPAPKNLVVSEVTEDSLRLSWTAPDAAFDSFLIQYQESEKVGEAINLTVPGSERSYDLTGLKPGTEYTVSIYGVGGLTYIHPLSAEFTT
notes: F:G GGLTYIH
B5: Clone No. 8 (designed binder)
chain: LPAPKNLVVSEVTEDSLRLSWTAPDAAFDSFLIQYQESEKVGEAINLTVPGSERSYDLTGLKPGTEYTVSIYGVGGLTYLHPLSAEFTT
notes: F:G GGLTYLH
B6: Clone No. 15 (designed binder)
chain: LPAPKNLVVSEVTEDSLRLSWTAPDAAFDSFLIQYQESEKVGEAINLTVPGSERSYDLTGLKPGTEYTVSIYGVITHMRDMPLSAEFTT
notes: F:G ITHMRDM
B7: Clone No. 83 (designed binder)
chain: LPAPKNLVVSEVTEDSLRLSWTAPDAAFDSFLIQYQESEKVGEAINLTVPGSERSYDLTGLKPGTEYTVSIYGVDVTEVYMPLSAEFTT
notes: F:G DVTEVYM
B8: Clone No. 1 (designed binder)
chain: LPAPKNLVVSEVTEDSLRLSWTAPDAAFDSFLIQYQESEKVGEAINLTVPGSERSYDLTGLKPGTEYTVSIYGVGGLTYFHPLSAEFTT
notes: F:G GGLTYFH
B9: Clone No. 14 (designed binder)
chain: LPAPKNLVVSEVTEDSLRLSWTAPDAAFDSFLIQYQESEKVGEAINLTVPGSERSYDLTGLKPGTEYTVSIYGVGGLSFLHPLSAEFTT
notes: F:G GGLSFLH
B10: Clone No. 70 (designed binder)
chain: LPAPKNLVVSEVTEDSLRLSWTAPDAAFDSFLIQYQESEKVGEAINLTVPGSERSYDLTGLKPGTEYTVSIYGVEWRVQVAPLSAEFTT
notes: F:G EWRVQVA
B11: Clone No. 5 (designed binder)
chain: LPAPKNLVVSEVTEDSLRLSWTAPDAAFDSFLIQYQESEKVGEAINLTVPGSERSYDLTGLKPGTEYTVSIYGVGGLSVIHPLSAEFTT
notes: F:G GGLSVIH
B12: Clone No. 3 (designed binder)
chain: LPAPKNLVVSEVTEDSLRLSWTAPDAAFDSFLIQYQESEKVGEAINLTVPGSERSYDLTGLKPGTEYTVSIYGVEGLGVIHPLSAEFTT
notes: F:G EGLGVIH
B13: Clone No. 80 (designed binder)
chain: LPAPKNLVVSEVTEDSLRLSWTAPDAAFDSFLIQYQESEKVGEAINLTVPGSERSYDLTGLKPGTEYTVSIYGVRVSEEYGPLSAEFTT
notes: F:G RVSEEYG
B14: Clone No. 71 (designed binder)
chain: LPAPKNLVVSEVTEDSLRLSWTAPDAAFDSFLIQYQESEKVGEAINLTVPGSERSYDLTGLKPGTEYTVSIYGVGGLRYLHPLSAEFTT
notes: F:G GGLRYLH
B15: Clone No. 78 (designed binder)
chain: LPAPKNLVVSEVTEDSLRLSWTAPDAAFDSFLIQYQESEKVGEAINLTVPGSERSYDLTGLKPGTEYTVSIYGVRLTALNAPLSAEFTT
notes: F:G RLTALNA
B16: Clone No. 68 (designed binder)
chain: LPAPKNLVVSEVTEDSLRLSWTAPDAAFDSFLIQYQESEKVGEAINLTVPGSERSYDLTGLKPGTEYTVSIYGVWHGMIRPPLSAEFTT
notes: F:G WHGMIRP
B17: Clone No. 76 (designed binder)
chain: LPAPKNLVVSEVTEDSLRLSWTAPDAAFDSFLIQYQESEKVGEAINLTVPGSERSYDLTGLKPGTEYTVSIYGVGGWPVRVPLSAEFTT
notes: F:G GGWPVRV
B18: Clone No. 34 (designed binder)
chain: LPAPKNLVVSEVTEDSLRLSWTAPDAAFDSFLIQYQESEKVGEAINLTVPGSERSYDLTGLKPGTEYTVSIYGVGGLTVLHPLSAEFTT
notes: F:G GGLTVLH
B19: Clone No. 10 (designed binder)
chain: LPAPKNLVVSEVTEDSLRLSWTAPDAAFDSFLIQYQESEKVGEAINLTVPGSERSYDLTGLKPGTEYTVSIYGVGGLTDIHPLSAEFTT
notes: F:G GGLTDIH
B20: Clone No. 75 (designed binder)
chain: LPAPKNLVVSEVTEDSLRLSWTAPDAAFDSFLIQYQESEKVGEAINLTVPGSERSYDLTGLKPGTEYTVSIYGVMTLTGIDPLSAEFTT
notes: F:G MTLTGID
B21: Clone No. 12 (designed binder)
chain: LPAPKNLVVSEVTEDSLRLSWTAPDAAFDSFLIQYQESEKVGEAINLTVPGSERSYDLTGLKPGTEYTVSIYGVGGLRVIHPLSAEFTT
notes: F:G GGLRVIH
B22: Clone No. 77 (designed binder)
chain: LPAPKNLVVSEVTEDSLRLSWTAPDAAFDSFLIQYQESEKVGEAINLTVPGSERSYDLTGLKPGTEYTVSIYGVLDLYLRTPLSAEFTT
notes: F:G LDLYLRT
B23: Clone No. 74 (designed binder)
chain: LPAPKNLVVSEVTEDSLRLSWTAPDAAFDSFLIQYQESEKVGEAINLTVPGSERSYDLTGLKPGTEYTVSIYGVGGLSYLHPLSAEFTT
notes: F:G GGLSYLH
B24: Clone No. 79 (designed binder)
chain: LPAPKNLVVSEVTEDSLRLSWTAPDAAFDSFLIQYQESEKVGEAINLTVPGSERSYDLTGLKPGTEYTVSIYGVGIPRWVRPLSAEFTT
notes: F:G GIPRWVR
B25: Clone No. 36 (designed binder)
chain: LPAPKNLVVSEVTEDSLRLSWTAPDAAFDSFLIQYQESEKVGEAINLTVPGSERSYDLTGLKPGTEYTVSIYGVGGLSVVHPLSAEFTT
notes: F:G GGLSVVH
B26: Clone No. 2 (designed binder)
chain: LPAPKNLVVSEVTEDSLRLSWTAPDAAFDSFLIQYQESEKVGEAINLTVPGSERSYDLTGLKPGTEYTVSIYGVGGLSDIHPLSAEFTT
notes: F:G GGLSDIH
B27: Clone No. 82 (designed binder)
chain: LPAPKNLVVSEVTEDSLRLSWTAPDAAFDSFLIQYQESEKVGEAINLTVPGSERSYDLTGLKPGTEYTVSIYGVWMVNKVLPLSAEFTT
notes: F:G WMVNKVL
B28: Clone No. 73 (designed binder)
chain: LPAPKNLVVSEVTEDSLRLSWTAPDAAFDSFLIQYQESEKVGEAINLTVPGSERSYDLTGLKPGTEYTVSIYGVPWRYGLHPLSAEFTT
notes: F:G PWRYGLH
B29: Clone No. 4 (designed binder)
chain: LPAPKNLVVSEVTEDSLRLSWTAPDAAFDSFLIQYQESEKVGEAINLTVPGSERSYDLTGLKPGTEYTVSIYGVGGLGVIHPLSAEFTT
notes: F:G GGLGVIH
B30: Clone No. 81 (designed binder)
chain: LPAPKNLVVSEVTEDSLRLSWTAPDAAFDSFLIQYQESEKVGEAINLTVPGSERSYDLTGLKPGTEYTVSIYGVVLSLWMIPLSAEFTT
notes: F:G VLSLWMI
B31: Clone No. 35 (designed binder)
chain: LPAPKNLVVSEVTEDSLRLSWTAPDAAFDSFLIQYQESEKVGEAINLTVPGSERSYDLTGLKPGTEYTVSIYGVGGLAYLHPLSAEFTT
notes: F:G GGLAYLH
B32: Clone No. 9 (designed binder)
chain: LPAPKNLVVSEVTEDSLRLSWTAPDAAFDSFLIQYQESEKVGEAINLTVPGSERSYDLTGLKPGTEYTVSIYGVGGLSYFHPLSAEFTT
notes: F:G GGLSYFH
B33: Clone No. 69 (designed binder)
chain: LPAPKNLVVSEVTEDSLRLSWTAPDAAFDSFLIQYQESEKVGEAINLTVPGSERSYDLTGLKPGTEYTVSIYGVVLSVLQRPLSAEFTT
notes: F:G VLSVLQR
B34: Clone No. 13 (designed binder)
chain: LPAPKNLVVSEVTEDSLRLSWTAPDAAFDSFLIQYQESEKVGEAINLTVPGSERSYDLTGLKPGTEYTVSIYGVGALSVIHPLSAEFTT
notes: F:G GALSVIH
B35: Clone No. 85 (designed binder)
chain: LPAPKNLVVSEVTEDSLRLSWTAPDAAFDSFLIQYQESEKVGEAINLTVPGSERSYDLTGLKPGTEYTVSIYGVLWWTLRKPLSAEFTT
notes: F:G LWWTLRK
B36: Clone No. 11 (designed binder)
chain: LPAPKNLVVSEVTEDSLRLSWTAPDAAFDSFLIQYQESEKVGEAINLTVPGSERSYDLTGLKPGTEYTVSIYGVGGLSSIHPLSAEFTT
notes: F:G GGLSSIH

In this assay the target is T1, recombinant TNFα, biotinylated (human, UniProt P01375 77-233, biotinylated using sulfo-NHS-LC-Biotin (sites not given)).
T1 construct: human is stated in the abstract and claims; also called biotinylated TNFα; human TNFα
T1 sequence (P01375 77-233 limits assumed): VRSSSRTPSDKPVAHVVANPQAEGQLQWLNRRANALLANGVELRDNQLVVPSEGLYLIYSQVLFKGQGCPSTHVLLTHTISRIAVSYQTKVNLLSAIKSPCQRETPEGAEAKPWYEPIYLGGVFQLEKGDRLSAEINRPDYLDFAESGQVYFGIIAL
The assay is described as follows: ELISA of lysates on biotinylated TNFα on streptavidin plate. The procedure: Maxisorp plates (Nunc) were coated with 0.5 μg of streptavidin, washed with TBST, and bound to 100 ng of biotinylated TNFα or 200 ng of biotinylated human serum albumin before being blocked with Starting Block (Thermo Scientific). Clarified lysates diluted 1:1 in Starting Block were added to the plates and allowed to bind for 1 hour before being washed with TBST. Detection of bound Tencon was accomplished using an anti-HIS-HRP antibody (Qiagen).
On to B1, for which the binding result is on record as “binds”.
With B2 the entry was “binds”; with B3, “binds”; with B4, “binds”.
With B5 the entry was “binds”; with B6, “binds”; with B7, “binds”.
In the case of B8, the binding result was “binds”.
Consider B9, for which the binding result was “binds”.
On to B10, for which the binding result is “binds”.
For B11, the binding result was “binds”.
Consider B12, for which the binding result is “binds”.
The entry for B13 is “binds”; for B14 it is “binds”; for B15 it is “binds”.
The entry for B16 is “binds”; for B17 it is “binds”; for B18 it is “binds”.
Turning to B19, the binding result was “binds”.
The entry for B20 is “binds”.
With B21 the entry was “binds”; with B22, “binds”.
With B23, the binding result is “binds”.
On to B24, for which the binding result is recorded as “binds”.
With B25 the entry was “binds”; with B26, “binds”; with B27, “binds”.
Consider B28, for which the binding result is “binds”.
B29: the binding result is on record as “binds”.
The entry for B30 is “binds”.
Take B31: the binding result is listed as “binds”.
With B32 the entry was “binds”; with B33, “binds”.
The entry for B34 is “binds”; for B35 it is “binds”; for B36 it is “binds”.
